Legend:
[1] = molecular target: CLDN6 endogenously expressed by human cancer cell lines (ARK2, OVCA429) (human) (UniProt P56747); assay: FACS, 1.5 µg Ab, ARK2 cells
[2] = molecular target: mouse CLDN6 fused to GFP, expressed on engineered HEK293T cells (mouse) (UniProt Q9Z262); assay: FACS, 293T clone with mouse CLDN6, dose not given
[3] = molecular target: human CLDN6 fused to GFP, expressed on engineered HEK293T cells (HEK293T-CLDN6-mGFP) (human) (UniProt P56747); assay: FACS, 1.5 µg Ab, 293T clone with human CLDN6
human CLDN6 fused to GFP, expressed on engineered HEK293T cells (HEK293T-CLDN6-mGFP) (human), sequence (P56747 whole entry, change not shown, the tested form may be a part): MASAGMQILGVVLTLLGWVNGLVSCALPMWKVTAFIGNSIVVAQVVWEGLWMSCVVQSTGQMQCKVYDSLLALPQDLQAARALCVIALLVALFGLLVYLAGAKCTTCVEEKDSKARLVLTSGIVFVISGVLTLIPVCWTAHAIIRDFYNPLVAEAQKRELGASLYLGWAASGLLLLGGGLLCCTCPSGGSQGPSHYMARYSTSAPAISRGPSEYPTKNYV

[4] = molecular target: CLDN6 endogenously expressed by human cancer cell lines (ARK2, OVCA429) (human) (UniProt P56747); assay: FACS, 0.3 µg Ab, ARK2 cells
[5] = molecular target: CLDN6 endogenously expressed by human cancer cell lines (ARK2, OVCA429) (human) (UniProt P56747); assay: FACS, 1.5 µg Ab, OVCA429 cells
[6] = molecular target: human CLDN6 fused to GFP, expressed on engineered HEK293T cells (HEK293T-CLDN6-mGFP) (human) (UniProt P56747); assay: FACS, 0.3 µg Ab, 293T clone with human CLDN6

CLDN6 endogenously expressed by human cancer cell lines (ARK2, OVCA429) (human), sequence (P56747 whole entry, the tested form may be a part): as the sequence (P56747 whole entry, change not shown, the tested form may be a part) above
mouse CLDN6 fused to GFP, expressed on engineered HEK293T cells (mouse), sequence (Q9Z262 whole entry, change not shown, the tested form may be a part): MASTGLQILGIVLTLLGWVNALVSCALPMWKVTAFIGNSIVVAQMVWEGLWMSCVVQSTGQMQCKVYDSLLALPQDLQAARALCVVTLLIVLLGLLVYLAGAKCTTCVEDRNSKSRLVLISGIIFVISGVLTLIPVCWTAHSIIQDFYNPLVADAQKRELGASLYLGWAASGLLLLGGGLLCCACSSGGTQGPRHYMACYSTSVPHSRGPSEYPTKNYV

2nd Ab only (antibody)
FACS fluorescence [1]: 1350
FACS fluorescence [2]: 1060
FACS fluorescence [3]: 768
FACS fluorescence [4]: 1350
FACS fluorescence [5]: 886
FACS fluorescence [6]: 768

Source: patent publication US20250333501A1
